Target: T1, EsCas13d, nuclease-dead (Eubacterium siraeum, UniProt B0MS50, R295A;H300A;R849A;H854A)
T1 sequence: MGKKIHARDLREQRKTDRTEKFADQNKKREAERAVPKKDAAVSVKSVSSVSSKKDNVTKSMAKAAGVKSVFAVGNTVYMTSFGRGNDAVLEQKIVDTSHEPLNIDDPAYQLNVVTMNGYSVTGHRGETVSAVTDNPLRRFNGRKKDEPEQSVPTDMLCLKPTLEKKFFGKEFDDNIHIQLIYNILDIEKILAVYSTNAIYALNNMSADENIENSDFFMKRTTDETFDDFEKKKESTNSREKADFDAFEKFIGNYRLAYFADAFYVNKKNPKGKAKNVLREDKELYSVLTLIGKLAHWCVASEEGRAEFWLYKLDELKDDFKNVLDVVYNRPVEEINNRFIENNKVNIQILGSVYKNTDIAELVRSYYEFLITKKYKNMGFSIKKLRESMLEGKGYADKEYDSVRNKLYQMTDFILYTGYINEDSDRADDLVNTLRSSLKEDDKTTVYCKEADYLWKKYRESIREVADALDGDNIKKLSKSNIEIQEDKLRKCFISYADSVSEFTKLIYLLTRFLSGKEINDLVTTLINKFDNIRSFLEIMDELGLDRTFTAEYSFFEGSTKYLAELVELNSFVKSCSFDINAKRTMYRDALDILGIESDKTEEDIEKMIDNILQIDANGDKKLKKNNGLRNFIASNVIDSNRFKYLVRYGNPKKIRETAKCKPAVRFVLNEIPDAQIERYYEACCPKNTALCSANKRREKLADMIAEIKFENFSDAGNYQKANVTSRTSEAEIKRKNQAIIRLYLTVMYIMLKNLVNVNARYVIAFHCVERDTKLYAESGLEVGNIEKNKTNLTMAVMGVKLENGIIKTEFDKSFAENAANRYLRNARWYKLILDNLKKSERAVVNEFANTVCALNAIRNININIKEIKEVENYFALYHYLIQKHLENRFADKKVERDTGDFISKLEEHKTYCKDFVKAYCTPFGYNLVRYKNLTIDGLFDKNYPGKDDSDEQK
Test: crRNA (strand 1, pre-loaded); Mg2+; 40 mM Tris-HCl pH 7.5, 150 mM NaCl, 6 mM MgCl2, 1 mM DTT, 0.1% Tween-20, 0.2 mg/ml BSA; 25 C; 10 min per concentration, then washed
Conditions: tags: His6-TwinStrep-SUMO cleaved; N-terminal SNAP kept (SNAP-Surface 488); label: 3' end held by stalled T7 RNA polymerase

Binder	Kd
target 1 A18C,U19G (mixed) RNA 1: CACCCGUGCAAAAAUGCAGGGGUCUAAAACUGAGCGGAUAACCUCUCUAUGG RNA 2: GGGAAUGGAUCCACAUCUACGAAUUCGUACCAGCGAGAGGUUAUCCGCUCACCGAGAUCGGAAGAGCACACGU	55 ± 14 nM
target 1 insC 3' of 18,insG 3' of 1 (mixed) RNA 1: CACCCGUGCAAAAAUGCAGGGGUCUAAAACUGAGCGGAUAACCUCUCUAUGG RNA 2: GGGAAUGGAUCCACAUCUACGAAUUCGUACCAUACGAGAGGUUAUCCGCUCAGCCGAGAUCGGAAGAGCACACGU	34 ± 4 nM
target 3 U8A,A18G (mixed) RNA 1: CACCCGUGCAAAAUUGCAGGGGUCUAAAACGACCUGAAUAUUUCAGAUCAAA RNA 2: GGGAAUGGAUCCACAUCUACGAAUUCGUUUUUGGUCUGAAAUAAUCAGGUCUGCAGAUCGGAAGAGCACACGU	63 ± 9.5 nM
target 3 U2G,U8C (mixed) RNA 1: CACCCGUGCAAAAUUGCAGGGGUCUAAAACGACCUGAAUAUUUCAGAUCAAA RNA 2: GGGAAUGGAUCCACAUCUACGAAUUCGUUUUUGAUCUGAAAUACUCAGGGCUGCAGAUCGGAAGAGCACACGU	20.6 ± 2.2 nM
target 3 C6U,A11U (mixed) RNA 1: CACCCGUGCAAAAUUGCAGGGGUCUAAAACGACCUGAAUAUUUCAGAUCAAA RNA 2: GGGAAUGGAUCCACAUCUACGAAUUCGUUUUUGAUCUGAAUUAUUUAGGUCUGCAGAUCGGAAGAGCACACGU	92 ± 24 nM
target 3 C6U,A9G (mixed) RNA 1: CACCCGUGCAAAAUUGCAGGGGUCUAAAACGACCUGAAUAUUUCAGAUCAAA RNA 2: GGGAAUGGAUCCACAUCUACGAAUUCGUUUUUGAUCUGAAAUGUUUAGGUCUGCAGAUCGGAAGAGCACACGU	22.1 ± 1.9 nM
target 3 insA 3' of 22,insG 3' of 6 (mixed) RNA 1: CACCCGUGCAAAAUUGCAGGGGUCUAAAACGACCUGAAUAUUUCAGAUCAAA RNA 2: GGGAAUGGAUCCACAUCUACGAAUUCGUUUAUUGAUCUGAAAUAUUCGAGGUCUGCAGAUCGGAAGAGCACACGU	12.2 ± 1.3 nM
target 3 insC 3' of 4,insA 3' of 3 (mixed) RNA 1: CACCCGUGCAAAAUUGCAGGGGUCUAAAACGACCUGAAUAUUUCAGAUCAAA RNA 2: GGGAAUGGAUCCACAUCUACGAAUUCGUUUUUGAUCUGAAAUAUUCAGCGAUCUGCAGAUCGGAAGAGCACACGU	34 ± 4.05 nM
target 3 U7G,U22A (mixed) RNA 1: CACCCGUGCAAAAUUGCAGGGGUCUAAAACGACCUGAAUAUUUCAGAUCAAA RNA 2: GGGAAUGGAUCCACAUCUACGAAUUCGUUAUUGAUCUGAAAUAUGCAGGUCUGCAGAUCGGAAGAGCACACGU	41 ± 5.5 nM
target 3 A12C (mixed) RNA 1: CACCCGUGCAAAAUUGCAGGGGUCUAAAACGACCUGAAUAUUUCAGAUCAAA RNA 2: GGGAAUGGAUCCACAUCUACGAAUUCGUUUUUGAUCUGACAUAUUCAGGUCUGCAGAUCGGAAGAGCACACGU	53 ± 8.5 nM
target 3 insA 3' of 8,insU 3' of 4 (mixed) RNA 1: CACCCGUGCAAAAUUGCAGGGGUCUAAAACGACCUGAAUAUUUCAGAUCAAA RNA 2: GGGAAUGGAUCCACAUCUACGAAUUCGUUUUUGAUCUGAAAUAUAUCAGUGUCUGCAGAUCGGAAGAGCACACGU	21.8 ± 3.6 nM
target 3 C1G,A5C (mixed) RNA 1: CACCCGUGCAAAAUUGCAGGGGUCUAAAACGACCUGAAUAUUUCAGAUCAAA RNA 2: GGGAAUGGAUCCACAUCUACGAAUUCGUUUUUGAUCUGAAAUAUUCCGGUGUGCAGAUCGGAAGAGCACACGU	83.5 ± 23 nM
target 3 insC 3' of 4,insU 3' of 3 (mixed) RNA 1: CACCCGUGCAAAAUUGCAGGGGUCUAAAACGACCUGAAUAUUUCAGAUCAAA RNA 2: GGGAAUGGAUCCACAUCUACGAAUUCGUUUUUGAUCUGAAAUAUUCAGCGUUCUGCAGAUCGGAAGAGCACACGU	29.1 ± 3.6 nM
target 3 C6A,U7G (mixed) RNA 1: CACCCGUGCAAAAUUGCAGGGGUCUAAAACGACCUGAAUAUUUCAGAUCAAA RNA 2: GGGAAUGGAUCCACAUCUACGAAUUCGUUUUUGAUCUGAAAUAUGAAGGUCUGCAGAUCGGAAGAGCACACGU	58 ± 6.5 nM
target 3 A11C (mixed) RNA 1: CACCCGUGCAAAAUUGCAGGGGUCUAAAACGACCUGAAUAUUUCAGAUCAAA RNA 2: GGGAAUGGAUCCACAUCUACGAAUUCGUUUUUGAUCUGAACUAUUCAGGUCUGCAGAUCGGAAGAGCACACGU	81.5 ± 34 nM
target 3 U7G,A18G (mixed) RNA 1: CACCCGUGCAAAAUUGCAGGGGUCUAAAACGACCUGAAUAUUUCAGAUCAAA RNA 2: GGGAAUGGAUCCACAUCUACGAAUUCGUUUUUGGUCUGAAAUAUGCAGGUCUGCAGAUCGGAAGAGCACACGU	64 ± 22.5 nM
target 3 U2G,A5G (mixed) RNA 1: CACCCGUGCAAAAUUGCAGGGGUCUAAAACGACCUGAAUAUUUCAGAUCAAA RNA 2: GGGAAUGGAUCCACAUCUACGAAUUCGUUUUUGAUCUGAAAUAUUCGGGGCUGCAGAUCGGAAGAGCACACGU	2.54 ± 0.36 nM
target 3 A12G,U22A (mixed) RNA 1: CACCCGUGCAAAAUUGCAGGGGUCUAAAACGACCUGAAUAUUUCAGAUCAAA RNA 2: GGGAAUGGAUCCACAUCUACGAAUUCGUUAUUGAUCUGAGAUAUUCAGGUCUGCAGAUCGGAAGAGCACACGU	40.5 ± 5.5 nM
target 3 insG 3' of 5,insA 3' of 3 (mixed) RNA 1: CACCCGUGCAAAAUUGCAGGGGUCUAAAACGACCUGAAUAUUUCAGAUCAAA RNA 2: GGGAAUGGAUCCACAUCUACGAAUUCGUUUUUGAUCUGAAAUAUUCAGGGAUCUGCAGAUCGGAAGAGCACACGU	17.2 ± 2.55 nM
target 3 insA 3' of 22,insC 3' of 19 (mixed) RNA 1: CACCCGUGCAAAAUUGCAGGGGUCUAAAACGACCUGAAUAUUUCAGAUCAAA RNA 2: GGGAAUGGAUCCACAUCUACGAAUUCGUUUAUUGCAUCUGAAAUAUUCAGGUCUGCAGAUCGGAAGAGCACACGU	91 ± 25.5 nM
target 3 insA 3' of 7,insU 3' of 3 (mixed) RNA 1: CACCCGUGCAAAAUUGCAGGGGUCUAAAACGACCUGAAUAUUUCAGAUCAAA RNA 2: GGGAAUGGAUCCACAUCUACGAAUUCGUUUUUGAUCUGAAAUAUUACAGGUUCUGCAGAUCGGAAGAGCACACGU	76 ± 32 nM
target 3 G4A,A18G (mixed) RNA 1: CACCCGUGCAAAAUUGCAGGGGUCUAAAACGACCUGAAUAUUUCAGAUCAAA RNA 2: GGGAAUGGAUCCACAUCUACGAAUUCGUUUUUGGUCUGAAAUAUUCAAGUCUGCAGAUCGGAAGAGCACACGU	13.7 ± 1.15 nM
target 3 C1U,U2G (mixed) RNA 1: CACCCGUGCAAAAUUGCAGGGGUCUAAAACGACCUGAAUAUUUCAGAUCAAA RNA 2: GGGAAUGGAUCCACAUCUACGAAUUCGUUUUUGAUCUGAAAUAUUCAGGGUUGCAGAUCGGAAGAGCACACGU	91 ± 20 nM
target 3 A5C (mixed) RNA 1: CACCCGUGCAAAAUUGCAGGGGUCUAAAACGACCUGAAUAUUUCAGAUCAAA RNA 2: GGGAAUGGAUCCACAUCUACGAAUUCGUUUUUGAUCUGAAAUAUUCCGGUCUGCAGAUCGGAAGAGCACACGU	64.5 ± 11 nM
target 3 G3C,U8A (mixed) RNA 1: CACCCGUGCAAAAUUGCAGGGGUCUAAAACGACCUGAAUAUUUCAGAUCAAA RNA 2: GGGAAUGGAUCCACAUCUACGAAUUCGUUUUUGAUCUGAAAUAAUCAGCUCUGCAGAUCGGAAGAGCACACGU	63.5 ± 7.5 nM
target 3 complement block 4-7 (mixed) RNA 1: CACCCGUGCAAAAUUGCAGGGGUCUAAAACGACCUGAAUAUUUCAGAUCAAA RNA 2: GGGAAUGGAUCCACAUCUACGAAUUCGUUUUUGAUCUGAAAUAUAGUCGUCUGCAGAUCGGAAGAGCACACGU	23.6 ± 1.75 nM
target 3 A5G,A13G (mixed) RNA 1: CACCCGUGCAAAAUUGCAGGGGUCUAAAACGACCUGAAUAUUUCAGAUCAAA RNA 2: GGGAAUGGAUCCACAUCUACGAAUUCGUUUUUGAUCUGGAAUAUUCGGGUCUGCAGAUCGGAAGAGCACACGU	~100 nM
target 3 insU 3' of 19,insU 3' of 3 (mixed) RNA 1: CACCCGUGCAAAAUUGCAGGGGUCUAAAACGACCUGAAUAUUUCAGAUCAAA RNA 2: GGGAAUGGAUCCACAUCUACGAAUUCGUUUUUGUAUCUGAAAUAUUCAGGUUCUGCAGAUCGGAAGAGCACACGU	105 ± 45 nM
